In assay [1] the target is T1, Rat ANGPTL4(24-405)-FLAG-His6-Avi (rat, UniProt Q6TMA8 24-405, biotin on the C-terminal Avi tag (BirA) where the protein is immobilised).
T1 sequence: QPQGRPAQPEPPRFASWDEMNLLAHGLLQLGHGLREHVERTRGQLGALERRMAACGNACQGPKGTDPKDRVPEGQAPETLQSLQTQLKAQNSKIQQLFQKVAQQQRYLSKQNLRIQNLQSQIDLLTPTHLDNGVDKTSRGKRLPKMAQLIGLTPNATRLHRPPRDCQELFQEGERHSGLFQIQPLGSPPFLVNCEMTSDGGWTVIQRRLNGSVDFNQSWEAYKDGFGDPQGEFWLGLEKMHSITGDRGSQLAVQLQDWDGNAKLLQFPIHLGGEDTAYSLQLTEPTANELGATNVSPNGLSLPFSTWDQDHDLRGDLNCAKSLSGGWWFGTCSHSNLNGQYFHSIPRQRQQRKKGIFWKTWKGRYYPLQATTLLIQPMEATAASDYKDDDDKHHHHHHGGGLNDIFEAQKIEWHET
Kind of assay: Octet (ForteBio) kinetics, biotinylated antigen on streptavidin sensor, IgG in solution; Octet kinetics; run 3 on rat ANGPTL4. (In general: In BLI a coated tip is dipped into the sample, and binding shifts an interference pattern.)

In assay [2] the target is T1, Rat ANGPTL4(24-405)-FLAG-His6-Avi. Nature of the assay: Octet (ForteBio) kinetics, biotinylated antigen on streptavidin sensor, IgG in solution.
Assay [3] has as its target T2, Mouse ANGPTL4(26-410)-FLAG-His6-Avi (mouse, UniProt Q9Z1P8 24-410, biotin on the C-terminal Avi tag (BirA) where the protein is immobilised).
T2 sequence: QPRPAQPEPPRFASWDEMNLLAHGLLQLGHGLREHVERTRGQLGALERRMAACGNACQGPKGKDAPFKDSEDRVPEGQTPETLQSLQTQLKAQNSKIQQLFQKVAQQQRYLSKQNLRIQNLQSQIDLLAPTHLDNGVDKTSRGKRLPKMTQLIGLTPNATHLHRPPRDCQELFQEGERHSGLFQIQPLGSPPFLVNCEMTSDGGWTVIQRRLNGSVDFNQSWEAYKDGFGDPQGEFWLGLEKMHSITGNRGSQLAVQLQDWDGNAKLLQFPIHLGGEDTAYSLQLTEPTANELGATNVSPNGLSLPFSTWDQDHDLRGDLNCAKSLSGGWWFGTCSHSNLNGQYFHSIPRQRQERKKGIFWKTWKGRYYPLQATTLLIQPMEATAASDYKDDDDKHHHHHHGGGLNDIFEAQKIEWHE
The assay is described as above.

For assay [4], the target named is T3, Cynomolgus monkey ANGPTL4(26-406)-FLAG-His6-Avi (cynomolgus monkey, biotin on the C-terminal Avi tag (BirA) where the protein is immobilised).
T3 construct: also called Cyno ANGPTL4 (26-406)
T3 chain: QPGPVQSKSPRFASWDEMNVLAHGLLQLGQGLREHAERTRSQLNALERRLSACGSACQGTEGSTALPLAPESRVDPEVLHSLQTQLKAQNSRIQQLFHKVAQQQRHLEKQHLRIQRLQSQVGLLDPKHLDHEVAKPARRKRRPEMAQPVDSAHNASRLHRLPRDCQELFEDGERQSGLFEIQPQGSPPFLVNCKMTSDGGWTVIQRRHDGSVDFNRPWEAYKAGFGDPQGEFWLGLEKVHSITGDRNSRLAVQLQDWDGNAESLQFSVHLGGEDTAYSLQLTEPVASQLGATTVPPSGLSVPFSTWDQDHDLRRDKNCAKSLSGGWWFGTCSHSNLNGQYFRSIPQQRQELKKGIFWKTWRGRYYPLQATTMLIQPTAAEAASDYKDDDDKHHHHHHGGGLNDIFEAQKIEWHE
Described as above.

The target of assay [5] is T4, Human ANGPTL4(26-161)-FLAG-His6-Avi (human, biotin on the C-terminal Avi tag (BirA) where the protein is immobilised).
T4 construct: also called human ANGPTL4 N-terminal coiled coil domain; hANGPTL4-CCD
T4 chain: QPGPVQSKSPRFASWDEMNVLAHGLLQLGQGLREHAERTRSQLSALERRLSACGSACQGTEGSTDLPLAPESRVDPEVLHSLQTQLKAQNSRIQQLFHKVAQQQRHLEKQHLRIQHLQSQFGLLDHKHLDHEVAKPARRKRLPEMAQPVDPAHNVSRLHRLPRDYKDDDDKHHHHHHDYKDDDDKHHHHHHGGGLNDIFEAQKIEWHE
Described as above.

Assay [6] deals with T5, Cynomolgus monkey ANGPTL4(26-161)-FLAG-His6-Avi (cynomolgus monkey, biotin on the C-terminal Avi tag (BirA) where the protein is immobilised).
T5 construct: also called Cyno ANGPTL4 (26-161)
T5 chain: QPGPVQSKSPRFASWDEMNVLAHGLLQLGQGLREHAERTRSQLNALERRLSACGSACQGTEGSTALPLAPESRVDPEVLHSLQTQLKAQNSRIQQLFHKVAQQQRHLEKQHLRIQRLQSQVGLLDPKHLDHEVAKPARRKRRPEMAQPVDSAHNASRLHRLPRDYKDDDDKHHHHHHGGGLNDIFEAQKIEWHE
Described as above.

The target in assay [7] is T2, Mouse ANGPTL4(26-410)-FLAG-His6-Avi. Nature of the assay: Octet (ForteBio) kinetics; average KD of the runs; Octet kinetics; average KD of the two mouse runs.

Several values for one entry are separate records, joined by “and”; a condition that tells them apart may be missing. Identical values can stand only once.

B1: NEG276-LALA (antibody, human IgG1, kappa, L234A L235A)
heavy: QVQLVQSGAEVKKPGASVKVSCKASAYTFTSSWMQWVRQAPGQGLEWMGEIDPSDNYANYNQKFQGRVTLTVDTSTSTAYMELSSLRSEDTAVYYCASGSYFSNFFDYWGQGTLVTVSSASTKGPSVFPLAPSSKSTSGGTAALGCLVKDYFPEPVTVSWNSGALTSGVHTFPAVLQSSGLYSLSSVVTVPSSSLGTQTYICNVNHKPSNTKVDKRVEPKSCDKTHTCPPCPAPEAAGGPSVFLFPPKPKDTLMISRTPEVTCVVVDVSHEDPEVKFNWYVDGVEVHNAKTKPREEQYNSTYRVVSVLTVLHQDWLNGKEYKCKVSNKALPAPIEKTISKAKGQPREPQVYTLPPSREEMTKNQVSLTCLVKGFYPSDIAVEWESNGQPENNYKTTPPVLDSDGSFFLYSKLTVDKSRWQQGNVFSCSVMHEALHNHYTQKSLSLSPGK
light: EIVMTQSPATLSVSPGERATLSCKASQDIGSNLNWLQQKPGQAPRRLIYAVSNRGPGIPARFSGSRSGSEYTLTISSLQSEDFAVYYCLQYASSPWTFGQGTKVEIKRTVAAPSVFIFPPSDEQLKSGTASVVCLLNNFYPREAKVQWKVDNALQSGNSQESVTEQDSKDSTYSLSSTLTLSKADYEKHKVYACEVTHQGLSSPVTKSFNRGEC
Turning to B1, the Kd is 5.53 nM in assay [1]; 6.03 nM in assay [2]; 4.15 nM in assay [3]; 0.015 nM and ≤ 0.014 nM in assay [4]; ≤ 0.023 nM and 0.052 nM in assay [5]; 6.2 nM in assay [7]. Also, the koff is 0.00028 s⁻¹ in assay [1]; 5.4e-06 s⁻¹ in assay [4]; 9.2e-06 s⁻¹ in assay [5]; 6.4e-06 s⁻¹ and 1.7e-05 s⁻¹ in assay [6]. Also, the kon is 52000 M⁻¹ s⁻¹ in assay [1]; 360000 M⁻¹ s⁻¹ and 370000 M⁻¹ s⁻¹ in assay [4]; 220000 M⁻¹ s⁻¹ and 180000 M⁻¹ s⁻¹ in assay [5]; 270000 M⁻¹ s⁻¹ and 190000 M⁻¹ s⁻¹ in assay [6].

The term Kd denotes a measure of binding affinity in units of concentration. As a reminder, the koff is the first-order rate constant of dissociation. As a reminder, the kon is the second-order rate constant of association.

Values taken from patent US20220213181A1 (Novartis, published 2022).
